Assay results: patent publication US20240209061A1, “FUSION PROTEINS AND USES THEREOF” (Pfizer Inc., priority 2020, published 2024)

Assays:
[1] = system: EMT6 murine breast cancer cells; experiment: EMT6 breast cancer model, combination with talazoparib; type: in vivo, mouse
Procedure: EMT6murine breast cancer cells (3×10^5) were orthotopically implanted in the mammary fat pad of female Balb/c mice. When tumors reached ˜90 mm^3 (day 5 after implantation), mice were randomized and dosed with PBS vehicle control, CD80-K89Q-D90Q-E23C-A26C-Fc (0.1 or 1 mg/kg), and/or 0.33 mg/kg talazoparib (Tala). CD80-D90Q-Fc was dosed on Days 0 and 3, talazoparib was dosed daily. Tumor volume was determined by caliper measurements obtained in 2 dimensions and calculated as width^2×length/2. Error bars are depicted as ±SEM

[2] = system: NY-ESO1-TCR+ Jurkat reporter cells; experiment: Jurkat-NYESO1-IL-2-Luc and A375-CD64 co-stimulation assay; type: cell-based, human
Description: Jurkat-IL-2-Luc reporter cells (Promega, Product #J1631) were engineered with T cell receptor, TCR (Wargo J. Cancer Immunol Immunother 2009; Zhao Y. J Immunol 2005, Li Y, Nat Biotechnol 2005) against HLA-A2 restricted NY-ESO1 (SLLMWITQC-SEQ ID NO: 19) epitope using lentiviral transduction system. Human melanoma cells A375, which express human HLA-A*0201, were transduced with lentiviral vector containing endogenous codon for NY-ESO1 gene (Refseq accession NM_001327.2, CCDS14758.1). Upon expression, the construct underwent proteolytic cleavage at the ubiquitin/epitope junction, thus generating free, cytoplasmic epitope, which can be translocated into the endoplasmic reticulum and loaded onto class I HLA. A375-NY-ESO1 positive cells were treated with IFNγ to induce HLA expression and NY-ESO1 antigen presentation. The HLA expression and the antigen presentation was confirmed by Western Blot. The NY-ESO1^+-A375 cells were further engineered to express human FCγRI (CD64, GenBank:AAA58414.1, RefSeq:P12314.1) for cell surface assembly and displaying of CD80-Fc fusion proteins. The expression of FCγRI was confirmed by flow cytometry analysis.
A 96 well culture plate was seeded with NY-ESO1^+-A375 cells or NY-ESO1^+/FCγRI^+-A375 at 40,000 cells per well in 100 µL growth media (RPMI, 10% Heat Inactivated FBS, 200 μg/mL Hygromycin B, 1 mM sodium pyruvate, 0.1 mM MEM NEAA, 1 μg/mL puromycin) containing 10 ng/ml of human IFNγ (R&D Systems, product #285-IF) to induce MHC-A2 expression and grown overnight at 37° C. in CO2 incubator. To each well, NY-ESO1-TCR^+ Jurkat reporter cells, 100,000 (in 20 μL media), were added. 20 μL of serial dilutions of variant CD80-Fc fusion proteins with concentrations ranging from 0-1000 ng/ml (final concentrations per well) was added with appropriate controls. Assay plates were incubated for 6 hours at 37° C. in CO2 incubator. Following equilibration, 80 μL BioGlo luminescence reagent (BioGlo Luciferase assay kit, Promega, G7940) was added into each well. Plates were incubated for 5 minutes before reading luminescence on the EnSight™ plate reader (PerkinElmer).

recombinant soluble CD28 = target: T1, recombinant soluble CD28 (Homo sapiens, UniProt P10747); experiment: ELISA binding to recombinant soluble CD28; conditions: standard ELISA, FIG. 2A
T1 construct: Recombinant soluble CD28 and CTLA-4 proteins (from Creative BioMart, Product #CD28-3910H, CTLA-4-2232H) were immobilized; purchased Creative BioMart CD28-3910H
Procedure: Binding affinity of purified CD80-Fc fusion proteins (WT and variant) to recombinant soluble CD28 and CTLA-4 proteins was determined by standard ELISA. Recombinant soluble CD28 and CTLA-4 proteins (from Creative BioMart, Product #CD28-3910H, CTLA-4-2232H) were immobilized on 96 well microtiter plate (Thermo Scientific, Product #436110) in bicarbonate buffer at 4° C. overnight. After washing with 1×PBS containing 0.05% Tween 20 (wash buffer) plates were incubated with blocking buffer, 5% BSA in PBS, for 1 hour at room temperature. A serial dilution of CD80-Fc fusion proteins and human IgG1 isotype control antibody was prepared in blocking buffer, added into the plate and incubated at room temperature for 1 hour. Following washing 3× with wash buffer, 1:4000 dilution of HRP conjugated secondary anti-human IgG1 antibody (R&D Systems, MAB110-100) was added into the plate and incubated at room temperature for 1 hour. Plates were washed 3× with wash buffer and a 100 μl of LumiGlo (SeraCare, Product #5430-0040) reagent added into each well, incubated for 5 minutes at room temperature before reading luminescence signal in EnSight™ plate reader (PerkinElmer).

[3] = system: Jurkat-IL-2-Luc reporter cells; experiment: Jurkat-IL-2-Luc and HCT116-CD64 reporter co-stimulation assay; type: cell-based, human
Description: A T cell co-stimulation assay was designed based on T Cell Activation Bioassay (IL-2) Kit from Promega (Product #J1631). The assay consisted of a genetically engineered Jurkat T cell line that expresses luciferase reporter driven by an IL-2 promoter. Co-engagement of T cell antigen receptor (TCR/CD3) and CD28 co-stimulatory receptor induces activation of T cells and downstream intracellular signaling pathways that in turn regulate the expression of luciferase reporter. As described above, HCT116 human colon cancer cell line was used for TCR engagement using the CDH3×CD3 bispecific and genetically engineered by lentiviral transduction to express human FCγRI.
A 96 well culture plate was seeded with HCT116 parental or HCT116-CD64 cells at 40,000 cells per well in 100 μL RPMI with 10% HI FBS and grown overnight at 37° C. in CO2 incubator. To each well, Jurkat reporter cells (100,000 per well) and 10 μL of the CDH3×CD3 bispecific (8 ng/ml final concentration) were added. 10 μL of serial dilutions of variant CD80-Fc fusion proteins with concentrations ranging from 0-1000 ng/ml (final concentrations per well) was added with appropriate controls. Assay plates were incubated for 6 hours at 37° C. in CO2 incubator for before harvesting culture supernatants and transferring to new plates. Following equilibration, 80 μL of BioGlo luminescence reagent (BioGlo Luciferase assay kit, Promega, G7940) was added into each well. Plates were incubated for 5 minutes before reading luminescence on the EnSight™ plate reader (PerkinElmer).
Jurkat is an immortalized human T cell line, and the Jurkat IL-2-reporter assay assesses the CD28-mediated signaling resulting in activation of the IL-2 promoter. The activity of CD80-Fc fusion proteins was measured using the co-culture HCT116-CD64-Jurkat IL-2 reporter assay, as described in Example 2, but using 20 ng/ml CDH3×CD3 bispecific.

[4] = target: CD28 expressed on Jurkat T cell line / human T cells (human) (UniProt P10747); experiment: cell-based or functional assay
[5] = Thermal stability by Differential Scanning calorimetry (DSC); type: physicochemical; conditions: PBS
Procedure: There is a correlation between the thermal stability of a protein with the overall stability of the protein. Enhanced thermal stability often provides improved manufacturability and longer shelf life/stability. Thermal stability of variant CD80-Fc fusion proteins was assessed by Differential Scanning calorimetry (DSC). Variant CD80-Fc fusion proteins were analyzed using a MicroCal VP-DSC instrument. […] Tables 8-10 show the first thermal transition temperature (Tm1) of CD80-Fc fusion proteins and the enhanced thermal stability of variant CD80-Fc fusion proteins compared to CD80-WT-Fc fusion proteins.

[6] = AC-SINS self-interaction assay; type: physicochemical; conditions: Table 6
Procedure: Variant CD80-Fc fusion proteins were assessed by measuring non-specific binding using a DNA- and insulin-binding ELISA (Avery et al., MAbs. 2018 February/March; 10(2): 244-255) and for self-interaction in an AC-SINS assay (affinity-capture self-interaction nanoparticle spectroscopy; Liu et al., 2014, mAbs 6:483-92). DNA- and insulin-binding scores were calculated as the signal ratio of the ELISA signal of the CD80-Fc fusion protein at 10 μg/ml to the ELISA signal in the absence of the Fc-fusion protein (buffer only). For the AC-SINS assay, proteins are captured by anti-human Fc antibodies coated on gold nanoparticles. […] The score ranges obtained from these in vitro assays correlate well with in vivo clearance using huFcRn transgenic (Tg32) mouse. Therapeutic proteins with high scores are at high risk for rapid clearance and unfavorable PK and therapeutics that score low are at low risk and favorable PK.

[7] = system: human peripheral blood mononuclear cells (PBMCs); experiment: Human PBMC IL-2 production assay with plate-bound anti-CD3; type: cell-based; conditions: Donor 418; 0.3 ug/ml anti-CD3
Procedure: The ability of the variant CD80-Fc fusion proteins to promote IL-2 production in the context of anti-CD3 (to stimulate T cell receptor signaling) in human peripheral blood mononuclear cells (PBMCs) was tested. To bind anti-CD3 antibody on the plate, the anti-human-CD3 (clone HIT3a, BD Pharmingen) was incubated in 96-well plates at 4° C. overnight at 1 μg/ml unless otherwise noted. Human PBMCs were isolated from freshly collected human whole blood using Ficoll-Paque Plus. Human PBMCs (100,000 per well) were incubated with plate-bound anti-CD3 and the indicated concentrations of soluble CD80-Fc fusion protein in RPMI+10% HI-FBS, pen/strep, sodium pyruvate and non-essential amino acids. After 48 hours incubation, supernatants were collected and IL-2 measured by the Quantikine human IL-2 ELISA kit from R&D.
Additional CD80-Fc fusion proteins were tested in the same PBMC assay, at the concentration of anti-human-CD3 (clone HIT3a, BD Pharmingen) noted.

In the case of `Cn1ncnc1[C@H]1c2n[nH]c(=O)c3cc(F)cc(c23)N[C@@H]1c1ccc(F)cc1` [Talazoparib, (8S,9R)-5-fluoro-8-(4-fluorophenyl)-9-(1-methyl-1H-1,2,4-triazol-5-yl)-8,9-dihydro-2H-pyrido[4,3,2-de]phthalazin-3(7H)-one, reference compound], the “% tumor growth inhibition” value ([1]; Day 20, Talazoparib 0.33 mg/kg alone) is reported as 10.9% and the “Day 20 tumor volume” value ([1]; Talazoparib 0.33 mg/kg daily alone) is reported as 1750.1 mm^3.
In the case of “CD80-D90K-Fc: variant CD80 ECD (D90K) fused to human IgG1 Fc”, the “enhanced co-stimulation compared to CD80-WT-Fc” value [2] is reported as “about 4 fold”, the “binding affinity to CD28 compared to WT CD80-Fc” value (recombinant soluble CD28) is reported as “increased binding affinity to CD28” and the “enhanced co-stimulation compared to CD80-WT-Fc” value [3] is reported as ~8 fold.
In the case of “CD80-D90N-Fc: variant CD80 ECD (D90N) fused to human IgG1 Fc”, the “enhanced co-stimulation compared to CD80-WT-Fc” value [2] is reported as “about 4 fold”.
Molecule CD80-D90Q-E23C-A26C-Fc (Fc fusion) has an IL-2 EC50, human PBMC assay with plate-bound anti-CD3 (average of 5 donors) [4] of 24.2 nM.
With “CD80-K89D-D90K-Fc: variant CD80 ECD (K89D, D90K) fused to human IgG1 Fc” the “binding affinity to CD28 compared to WT CD80-Fc” value (recombinant soluble CD28) was “increased binding affinity to CD28” and the “enhanced co-stimulation compared to CD80-WT-Fc” value [3] was ~8 fold.
In the case of “CD80-K89D-D90N-Fc: variant CD80 ECD (K89D, D90N) fused to human IgG1 Fc”, the “enhanced co-stimulation compared to CD80-WT-Fc” value [2] is reported as “about 8 fold”, the “binding affinity to CD28 compared to WT CD80-Fc” value (recombinant soluble CD28) is reported as “increased binding affinity to CD28” and the “enhanced co-stimulation compared to CD80-WT-Fc” value [3] is reported as “about 4 fold”.
With “CD80-K89D-D90Q-Fc: variant CD80 ECD (K89D, D90Q) fused to human IgG1 Fc” the “enhanced co-stimulation compared to CD80-WT-Fc” value [2] was “about 8 fold”, the “binding affinity to CD28 compared to WT CD80-Fc” value (recombinant soluble CD28) was “increased binding affinity to CD28” and the “enhanced co-stimulation compared to CD80-WT-Fc” value [3] was “about 4 fold”.
In the case of “CD80-K89D-Fc: variant CD80 ECD (K89D) fused to human IgG1 Fc”, the “binding affinity to CD28 compared to WT CD80-Fc” value (recombinant soluble CD28) is reported as “increased binding affinity to CD28”.
For “CD80-K89Q-D90Q-161C-Fc: disulfide stabilized variant CD80-Fc fusion protein (K89Q, D90Q, I61C)”, the “DSC Tm1” value [5] was 64.10 ± 0.17 °C and the “AC-SINS Score” value [6] was −1.
For “CD80-K89Q-D90Q-V22C-G45C-Fc: disulfide stabilized variant CD80-Fc fusion protein (K89Q, D90Q, V22C, G45C)”, the “DSC Tm1” value [5] was 68.67 ± 0.22 °C and the “AC-SINS Score” value [6] was −1.
For “CD80-K89Q-Fc: variant CD80 ECD (K89Q) fused to human IgG1 Fc”, the “binding affinity to CD28 compared to WT CD80-Fc” value (recombinant soluble CD28) was “increased binding affinity to CD28”.
For CD80-T28V-T57V-Fc (Fc fusion), the IL-2 EC50, human PBMC assay, donor 418, anti-CD3 0.3 ug/ml [4] was 2.64 nM.
For “CD80-T28V-T57V-Fc: non-cysteine stabilized variant CD80-Fc fusion protein”, the EC50 [7] was 2.64 nM and the “DSC Tm1” value [5] was 64 °C.
CD80-V11L-T62Y-Fc (Fc fusion) showed an IL-2 EC50, human PBMC assay, donor 418, anti-CD3 0.3 ug/ml [4] of 3.34 nM.
In the case of “CD80-V11L-T62Y-Fc: non-cysteine stabilized variant CD80-Fc fusion protein”, the EC50 [7] is reported as 3.34 nM and the “DSC Tm1” value [5] is reported as 58.76 ± 0.14 °C.
With CD80-V11L-V22F-Fc (Fc fusion) the IL-2 EC50, human PBMC assay, donor 418, anti-CD3 0.3 ug/ml [4] was 4.95 nM.
With “CD80-V11L-V22F-Fc: non-cysteine stabilized variant CD80-Fc fusion protein” the EC50 [7] was 4.95 nM and the “DSC Tm1” value [5] was 61.52 ± 0.12 °C.
CD80-V22F-T28V-T57V-Fc (Fc fusion) showed an IL-2 EC50, human PBMC assay, donor 418, anti-CD3 0.3 ug/ml [4] of 5.13 nM.
